Experimental data reported in publication doi:10.1101/2024.03.04.583391 (bioRxiv, 2024).

Target: T1, DIP-β-G, recombinant protein for SPR (Drosophila melanogaster)
T1 chain: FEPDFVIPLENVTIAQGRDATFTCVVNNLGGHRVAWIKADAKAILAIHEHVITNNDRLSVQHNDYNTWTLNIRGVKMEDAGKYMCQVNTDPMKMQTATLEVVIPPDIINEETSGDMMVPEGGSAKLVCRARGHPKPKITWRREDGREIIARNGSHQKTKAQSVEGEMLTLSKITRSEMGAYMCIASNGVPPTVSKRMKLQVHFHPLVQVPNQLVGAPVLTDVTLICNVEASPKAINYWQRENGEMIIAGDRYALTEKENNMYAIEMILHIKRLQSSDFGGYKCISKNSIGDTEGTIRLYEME
Assay: SPR

- Kd: 5.76 µM
B1: Dpr10-A, recombinant protein for SPR (domain or fragment, Drosophila melanogaster)
chain: WNEPYFDLTMPRNITSLVGKSAYLGCRVKHLGNKTVAWIRHRDLHILTVGTYTYTTDQRFQTSYHRDIDEWTLQIKWAQQRDAGVYECQISTQPVRSYSVNLNIVDLIDAETSDIMQQYYNDDAFYIAENRVYQSSNDEFAGMFGPIQTVAVPTATILGGPDLYVDKGSTINLTCIIKFSPEPPTHIFWYHQDKVLSEETSGGRLKFKTIKSEETKSILLIYDADLLHSGKYSCYPSNTEIASIRVHVLQGE
